T1: human FcγRIIA-Arg131 α subunit extracellular domain-His6-GST fusion (human, UniProt P12318 34-217)
T1 construct: extracellular domain; also called FcγRIIA-R131; not shown: glutathione S transferase (GST)
T1 sequence: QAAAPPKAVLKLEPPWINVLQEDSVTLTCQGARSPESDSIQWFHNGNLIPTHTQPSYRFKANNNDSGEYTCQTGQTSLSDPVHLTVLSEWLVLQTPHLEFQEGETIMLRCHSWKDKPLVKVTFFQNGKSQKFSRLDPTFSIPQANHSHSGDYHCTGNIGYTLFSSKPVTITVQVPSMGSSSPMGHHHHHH

T2: human FcγRIIA-R131 α subunit extracellular domain-6His-GST fusion (human, UniProt P12318 34-217)
T2 construct: also called FcγRIIA-Arg131; not shown: glutathione S-transferase (GST)
T2 sequence: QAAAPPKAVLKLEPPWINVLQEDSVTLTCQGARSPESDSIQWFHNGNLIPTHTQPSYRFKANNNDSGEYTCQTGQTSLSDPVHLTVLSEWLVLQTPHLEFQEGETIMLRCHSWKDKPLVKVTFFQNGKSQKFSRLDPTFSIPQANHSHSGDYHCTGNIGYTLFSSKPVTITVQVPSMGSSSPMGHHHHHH

T3: human FcγRIIB α subunit extracellular domain-6His-GST fusion (human, UniProt P31994 43-217)
T3 construct: not shown: glutathione S-transferase (GST)
T3 sequence: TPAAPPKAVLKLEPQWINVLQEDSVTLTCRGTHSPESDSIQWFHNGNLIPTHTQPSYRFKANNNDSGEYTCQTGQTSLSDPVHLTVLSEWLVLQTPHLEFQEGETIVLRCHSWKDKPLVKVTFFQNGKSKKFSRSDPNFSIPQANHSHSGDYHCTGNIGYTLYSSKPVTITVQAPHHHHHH


Assays:
[1] = biological target: T4, human FcγRIIIA-Phe158 α subunit extracellular domain-His6-GST fusion (human, UniProt P08637 17-208); experiment: hexamer ELISA
T4 construct: extracellular domain; also called FcγRIIIA-F158; CD16; not shown: glutathione S transferase (GST)
T4 sequence (P08637 other isoform, or with tags, fused parts or gaps): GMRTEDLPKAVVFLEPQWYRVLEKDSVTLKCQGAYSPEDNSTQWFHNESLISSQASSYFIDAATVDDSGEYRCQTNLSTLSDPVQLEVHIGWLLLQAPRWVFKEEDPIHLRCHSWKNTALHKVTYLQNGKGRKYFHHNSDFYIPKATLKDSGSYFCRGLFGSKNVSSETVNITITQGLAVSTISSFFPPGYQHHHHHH

[2] = biological target: T1, human FcγRIIA-Arg131 α subunit …; experiment: hexamer ELISA
[3] = biological target: T5, human FcγRIIIA-F158 α subunit extracellular domain-6His-GST fusion (human, UniProt P08637 17-208); experiment: ELISA, IgG:IgE hexamers on receptor-GST
T5 construct: also called FcγRIIIA-Phe158; not shown: glutathione S-transferase (GST)
T5 sequence (P08637 other isoform, or with tags, fused parts or gaps, form in doubt): as the sequence (P08637 other isoform, or with tags, fused parts or gaps) above

[4] = biological target: T2, human FcγRIIA-R131 α subunit …; experiment: ELISA, IgG:IgE hexamers on receptor-GST
[5] = biological target: T3, human FcγRIIB α subunit extracellular …; experiment: ELISA, IgG:IgE hexamers on receptor-GST
[6] = biological target: T6, human FcγRI (FcγRIA) α subunit extracellular domain-His6-GST fusion (human, UniProt P12314 16-292); experiment: monomeric IgG; ELISA on receptor-GST and THP-1 cells, averaged
T6 construct: Reported FcγRI values are the average of the plate ELISA on this fusion and of a flow cytometry assay on THP-1 cells; also called GST-FcγRIA; not shown: glutathione S-transferase (GST)
T6 sequence (P12314 other isoform, or with tags, fused parts or gaps, form in doubt): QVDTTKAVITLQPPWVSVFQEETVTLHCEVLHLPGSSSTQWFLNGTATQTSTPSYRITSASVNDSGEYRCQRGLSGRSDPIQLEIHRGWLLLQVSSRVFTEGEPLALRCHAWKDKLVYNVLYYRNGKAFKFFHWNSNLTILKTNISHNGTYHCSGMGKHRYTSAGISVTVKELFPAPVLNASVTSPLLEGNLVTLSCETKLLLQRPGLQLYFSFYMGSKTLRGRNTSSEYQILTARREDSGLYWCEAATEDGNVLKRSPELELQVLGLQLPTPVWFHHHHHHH

[7] = biological target: T7, human FcγRIIIA-Phe158 with human γ-chain on stably transfected CHO cells (human, UniProt P08637 17-254; P30273 19-86); experiment: flow cytometry, monomeric IgG on CHO cells with FcγRIIIA-Phe158 α- and γ-chains
T7 construct: whole, on cells; CHO cells stably transfected with the α- and γ-chains of the receptor; also called FcγRIIIA-Phe158 (cell-based assay)
T7 sequence (P08637 17-254, chain 1 of 2): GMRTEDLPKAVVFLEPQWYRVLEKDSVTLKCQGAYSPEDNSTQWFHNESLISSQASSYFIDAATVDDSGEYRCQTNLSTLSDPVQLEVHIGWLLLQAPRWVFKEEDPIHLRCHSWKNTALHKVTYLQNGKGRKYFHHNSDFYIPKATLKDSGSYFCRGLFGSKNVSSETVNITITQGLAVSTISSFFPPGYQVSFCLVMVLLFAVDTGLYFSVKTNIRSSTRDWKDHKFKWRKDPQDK
T7 sequence (P30273 19-86, chain 2 of 2): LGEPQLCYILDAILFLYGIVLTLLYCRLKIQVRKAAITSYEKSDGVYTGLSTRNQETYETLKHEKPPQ
Description: CHO cell transfection was carried out using Superfect (Qiagen) according to the manufacturer's instructions. […] Receptor expression levels were determined by staining with anti-FcγRIII monoclonal antibody 3G8 (Medarex). Binding of IgG1 variants was performed by adding monomeric IgG in staining buffer to 5×10^5 cells and incubating in 96 well round-bottom tissue culture plates (Costar, Cambridge, Mass.) at 4° C. for 30 min. Cells were washed three times with staining buffer and IgG binding detected by addition of 1:200 PE-F(ab')_2 fragment of goat anti-human IgG and incubation for 30 min at 4° C. After washing, immunofluorescence staining was analyzed on a FACScan flow cytometer using Cellquest software (Becton Dickinson). Dead cells were excluded from analysis by addition of 1 μg/ml propidium iodide.
For FcγRIIIA, the selected variants were assayed in the ELISA-format as well as on stable-transfected CHO cell lines expressing the γ-chains (FcγRIIIA-Phe158 or FcγRIIIA-Val158) with the associated human α-chain.

[8] = biological target: T8, human FcγRIIIA-Val158 α subunit extracellular domain-His6-GST fusion protein (human, UniProt P08637 17-208); experiment: ELISA format, hexameric complex on FcγRIIIA-Val158
T8 construct: ELISA-format target; also called FcγRIIIA-V158; not shown: glutathione S-transferase (GST)
T8 sequence (P08637 other isoform, or with tags, fused parts or gaps, form in doubt): as the sequence (P08637 other isoform, or with tags, fused parts or gaps) above, with F160V counted along it

[9] = biological target: T9, human FcγRIIIA-Phe158 α subunit extracellular domain-His6-GST fusion protein (human, UniProt P08637 17-208); experiment: ELISA, IgG:IgE hexamer on coated FcγRIIIA-Phe158-GST; value carried over from Table 6
T9 construct: ELISA-format target; also called FcγRIIIA-F158; not shown: glutathione S-transferase (GST)
T9 sequence (P08637 other isoform, or with tags, fused parts or gaps, form in doubt): as the sequence (P08637 other isoform, or with tags, fused parts or gaps) above

[10] = biological target: T10, human FcγRIIIA-Val158 with human γ-chain on stably transfected CHO cells (human, UniProt P08637 17-254; P30273 19-86); experiment: flow cytometry, monomeric IgG on CHO cells with FcγRIIIA-Val158 α- and γ-chains
T10 construct: whole, on cells; CHO cells stably transfected with the α- and γ-chains of the receptor; also called FcγRIIIA-Val158 (cell-based assay); FcγRIIIA-V158
T10 sequence (P08637 17-254 F176V, chain 1 of 2): as the sequence (P08637 17-254, chain 1 of 2) above, with F160V counted along it
T10 sequence (P30273 19-86, chain 2 of 2): as the sequence (P30273 19-86, chain 2 of 2) above

[11] = biological target: T9, human FcγRIIIA-Phe158 α subunit …; experiment: ELISA format, hexameric complex on FcγRIIIA-Phe158; separate assays run together with the Val158 assays

Binder	reduction in binding against native IgG1 [1] [%]	reduction in binding against native IgG1 [2] [%]	ratio to native IgG1 [3]	ratio to native IgG1 [4]	ratio to native IgG1 [5]	ratio to native IgG1 [6]	ratio of binding of the variant to that of native IgG1 [7]	ratio of binding of the variant to that of native IgG1 [8]	ratio of binding of the variant to that of native IgG1 [9]	ratio of binding of the variant to that of native IgG1 [10]	ratio of binding of the variant to that of native IgG1 [11]
E27 IgG1 variant K334(353)M (antibody, also called IG2 190) heavy: not shown light: DIQLTQSPSSLSASVGDRVTITCRASKPVDGEGDSYLNWYQQKPGKAPKLLIYAASYLESGVPSRFSGSGSGTDFTLTISSLQPEDFATYYCQQSHEDPYTFGQGTKVEIKRTVAAPSVFIFPPSDEQLKSGTASVVCLLNNFYPREAKVQWKVDNALQSGNSQESVTEQDSKDSTYSLSSTLTLSKADYEKHKVYACEVTHQGLSSPVTKSFNRGEC	–	–	0.49	0.99	0.93	1.18	–	–	–	–	–
E27 IgG1 variant K334(353)Y (antibody) heavy: not shown light: DIQLTQSPSSLSASVGDRVTITCRASKPVDGEGDSYLNWYQQKPGKAPKLLIYAASYLESGVPSRFSGSGSGTDFTLTISSLQPEDFATYYCQQSHEDPYTFGQGTKVEIKRTVAAPSVFIFPPSDEQLKSGTASVVCLLNNFYPREAKVQWKVDNALQSGNSQESVTEQDSKDSTYSLSSTLTLSKADYEKHKVYACEVTHQGLSSPVTKSFNRGEC	–	–	1.31	1.08	1.05	1.15	–	–	–	–	–
E27 IgG1 variant K334(353)H (antibody) heavy: not shown light: DIQLTQSPSSLSASVGDRVTITCRASKPVDGEGDSYLNWYQQKPGKAPKLLIYAASYLESGVPSRFSGSGSGTDFTLTISSLQPEDFATYYCQQSHEDPYTFGQGTKVEIKRTVAAPSVFIFPPSDEQLKSGTASVVCLLNNFYPREAKVQWKVDNALQSGNSQESVTEQDSKDSTYSLSSTLTLSKADYEKHKVYACEVTHQGLSSPVTKSFNRGEC	–	–	1.26	1.09	1.07	1.11	–	–	–	–	–
E27 IgG1 variant K334(353)W (antibody) heavy: not shown light: DIQLTQSPSSLSASVGDRVTITCRASKPVDGEGDSYLNWYQQKPGKAPKLLIYAASYLESGVPSRFSGSGSGTDFTLTISSLQPEDFATYYCQQSHEDPYTFGQGTKVEIKRTVAAPSVFIFPPSDEQLKSGTASVVCLLNNFYPREAKVQWKVDNALQSGNSQESVTEQDSKDSTYSLSSTLTLSKADYEKHKVYACEVTHQGLSSPVTKSFNRGEC	–	–	1.07	0.94	0.91	1.16	–	–	–	–	–
E27 IgG1 variant A339(359)T (antibody, also called IG2 273) heavy: not shown light: DIQLTQSPSSLSASVGDRVTITCRASKPVDGEGDSYLNWYQQKPGKAPKLLIYAASYLESGVPSRFSGSGSGTDFTLTISSLQPEDFATYYCQQSHEDPYTFGQGTKVEIKRTVAAPSVFIFPPSDEQLKSGTASVVCLLNNFYPREAKVQWKVDNALQSGNSQESVTEQDSKDSTYSLSSTLTLSKADYEKHKVYACEVTHQGLSSPVTKSFNRGEC	–	–	1.42	1.11	1.23	1.23	–	–	–	–	–
E27 IgG1 variant K290(307)E (antibody, also called IG2 77) heavy: not shown light: DIQLTQSPSSLSASVGDRVTITCRASKPVDGEGDSYLNWYQQKPGKAPKLLIYAASYLESGVPSRFSGSGSGTDFTLTISSLQPEDFATYYCQQSHEDPYTFGQGTKVEIKRTVAAPSVFIFPPSDEQLKSGTASVVCLLNNFYPREAKVQWKVDNALQSGNSQESVTEQDSKDSTYSLSSTLTLSKADYEKHKVYACEVTHQGLSSPVTKSFNRGEC	–	–	1.3	1.1	1.2	1.14	–	–	–	–	–
E27 IgG1 variant K290(307)R (antibody, also called IG2 78) heavy: not shown light: DIQLTQSPSSLSASVGDRVTITCRASKPVDGEGDSYLNWYQQKPGKAPKLLIYAASYLESGVPSRFSGSGSGTDFTLTISSLQPEDFATYYCQQSHEDPYTFGQGTKVEIKRTVAAPSVFIFPPSDEQLKSGTASVVCLLNNFYPREAKVQWKVDNALQSGNSQESVTEQDSKDSTYSLSSTLTLSKADYEKHKVYACEVTHQGLSSPVTKSFNRGEC	–	–	1.08	1.05	1.15	1.25	–	–	–	–	–

Next, values leading:

reduction in binding against native IgG1 [1] [%]	reduction in binding against native IgG1 [2] [%]	ratio to native IgG1 [3]	ratio to native IgG1 [4]	ratio to native IgG1 [5]	ratio to native IgG1 [6]	ratio of binding of the variant to that of native IgG1 [7]	ratio of binding of the variant to that of native IgG1 [8]	ratio of binding of the variant to that of native IgG1 [9]	ratio of binding of the variant to that of native IgG1 [10]	ratio of binding of the variant to that of native IgG1 [11]	Binder
30	30	–	–	–	–	–	–	–	–	–	anti-IgE E27 IgG1 Arg416 changed to Ala (antibody, named only by its position) heavy: not shown light: DIQLTQSPSSLSASVGDRVTITCRASKPVDGEGDSYLNWYQQKPGKAPKLLIYAASYLESGVPSRFSGSGSGTDFTLTISSLQPEDFATYYCQQSHEDPYTFGQGTKVEIKRTVAAPSVFIFPPSDEQLKSGTASVVCLLNNFYPREAKVQWKVDNALQSGNSQESVTEQDSKDSTYSLSSTLTLSKADYEKHKVYACEVTHQGLSSPVTKSFNRGEC
–	–	–	–	–	–	0.12 ratio (variant/native IgG1)	0.02 ratio (variant/native IgG1)	0.09 ratio (variant/native IgG1)	0.05 ratio (variant/native IgG1)	0.05 ratio (variant/native IgG1)	anti-IgE E27 IgG1 variant Asp265Ala (antibody, also called D278A) heavy: not shown light: DIQLTQSPSSLSASVGDRVTITCRASKPVDGEGDSYLNWYQQKPGKAPKLLIYAASYLESGVPSRFSGSGSGTDFTLTISSLQPEDFATYYCQQSHEDPYTFGQGTKVEIKRTVAAPSVFIFPPSDEQLKSGTASVVCLLNNFYPREAKVQWKVDNALQSGNSQESVTEQDSKDSTYSLSSTLTLSKADYEKHKVYACEVTHQGLSSPVTKSFNRGEC
–	–	–	–	–	–	2.46 ratio (variant/native IgG1)	1.1 ratio (variant/native IgG1)	1.39 ratio (variant/native IgG1)	1.26 ratio (variant/native IgG1)	1.39 ratio (variant/native IgG1)	anti-IgE E27 IgG1 variant Lys334Ala (antibody, also called K353A) heavy: not shown light: DIQLTQSPSSLSASVGDRVTITCRASKPVDGEGDSYLNWYQQKPGKAPKLLIYAASYLESGVPSRFSGSGSGTDFTLTISSLQPEDFATYYCQQSHEDPYTFGQGTKVEIKRTVAAPSVFIFPPSDEQLKSGTASVVCLLNNFYPREAKVQWKVDNALQSGNSQESVTEQDSKDSTYSLSSTLTLSKADYEKHKVYACEVTHQGLSSPVTKSFNRGEC
–	–	–	–	–	–	1.42 ratio (variant/native IgG1)	1.06 ratio (variant/native IgG1)	1.27 ratio (variant/native IgG1)	1.08 ratio (variant/native IgG1)	1.13 ratio (variant/native IgG1)	anti-IgE E27 IgG1 variant Glu333Ala (antibody, also called E352A) heavy: not shown light: DIQLTQSPSSLSASVGDRVTITCRASKPVDGEGDSYLNWYQQKPGKAPKLLIYAASYLESGVPSRFSGSGSGTDFTLTISSLQPEDFATYYCQQSHEDPYTFGQGTKVEIKRTVAAPSVFIFPPSDEQLKSGTASVVCLLNNFYPREAKVQWKVDNALQSGNSQESVTEQDSKDSTYSLSSTLTLSKADYEKHKVYACEVTHQGLSSPVTKSFNRGEC
–	–	–	–	–	–	1.61 ratio (variant/native IgG1)	1.01 ratio (variant/native IgG1)	1.31 ratio (variant/native IgG1)	0.89 ratio (variant/native IgG1)	1.15 ratio (variant/native IgG1)	anti-IgE E27 IgG1 variant Lys290Ala (antibody, also called K290(307)A; K307A) heavy: not shown light: DIQLTQSPSSLSASVGDRVTITCRASKPVDGEGDSYLNWYQQKPGKAPKLLIYAASYLESGVPSRFSGSGSGTDFTLTISSLQPEDFATYYCQQSHEDPYTFGQGTKVEIKRTVAAPSVFIFPPSDEQLKSGTASVVCLLNNFYPREAKVQWKVDNALQSGNSQESVTEQDSKDSTYSLSSTLTLSKADYEKHKVYACEVTHQGLSSPVTKSFNRGEC

From patent publication US7183387 (Genentech, dated 2007)
